The record followed here is US20040082512A1.

This test has as its target ZOT receptor of rabbit ileum. The experiment in a line: cell-based or functional assay.

Regarding “FZI/0, synthetic octapeptide Gly Gly Val Leu Val Gln Pro Gly”, the decrease of the effect of ZOT (6xHis-ZOT) on Rt of rabbit ileum after 20 min pre-treatment with FZI/0 is 75%, the decrease of the effect of zonulinh on Rt of rabbit ileum after 20 min pre-treatment with FZI/0 came to 100% and the decrease of the effect of zonulini on Rt of rabbit ileum after 20 min pre-treatment with FZI/0 was found to be 97%.
